Data published in publication PMC2291572, “HDP—A Novel Heme Detoxification Protein from the Malaria Parasite” (PLoS Pathogens, 2008).

Tests used:
[1] = molecular target: T1, HDP (Heme Detoxification Protein; PF14_0446) (Plasmodium falciparum, UniProt Q8IL04); experiment: isothermal titration calorimetry; format: binding
T1 construct: full length, 205 residues; E. coli BL21 inclusion bodies, N-lauryl sarkosine solubilised

[2] = molecular target: the molecule itself; experiment: immunoblot (band of dimer size); Western blot with anti-HDP antibodies on protein extract of trophozoite-infected RBCs; gel conditions not shown
[3] = molecular target: the molecule itself; experiment: immunoblot (band of dimer size); Western blot of transfected parasites with a monoclonal antibody against the c-myc tag; protein secreted into infected RBC cytosol

For `C=CC1=C(C)C2=Cc3c(C=C)c(C)c4[n]3[Fe]([Cl])[n]3c(c(C)c(CCC(=O)O)c3=CC3=NC(=C4)C(C)=C3CCC(=O)O)=CC1=N2` [heme], which Kd [1] is on record?
The Kd was 80 nM.

B1: Heme Detoxification Protein (HDP), native, from P. falciparum-infected RBCs (natural protein, UniProt Q8IL04 1-205, looked up)
chain: MKNRFYYNLIIKRLYTRSGGLRKPQKVTNDPESINRKVYWCFEHKPVKRTIINLIYSHNELKIFSNLLNHPTVGSSLIHELSLDGPYTAFFPSNEAMQLINIESFNKLYNDENKLSEFVLNHVTKEYWLYRDLYGSSYQPWLMYNEKREAPEKLRNLLNNDLIVKIEGEFKHCNHSIYLNGSKIIRPNMKCHNGVVHIVDKPIIF
notes: Heme Detoxification Protein (HDP), Plasmodium falciparum, 205 amino acids; detected as intact HDP according to its predicted size; Called a dimer from bands on immunoblots and a silver-stained gel; also called native HDP; PfHDP; source: endogenous, extracts of P. falciparum trophozoite-infected RBCs and food vacuole preparation; also purified from the infected RBC extract by immunoprecipitation
With B1 as the molecule, how does the “stoichiometry N” value [2] read?
Its value is 2.

B2: HDPc-Myc (HDP with a carboxyl-terminal c-Myc tag) (natural protein, P. falciparum, UniProt Q8IL04 1-205, looked up)
chain: B1 chain
notes: Heme Detoxification Protein (HDP), Plasmodium falciparum, 205 amino acids; the tag is described as attached to the end of the protein and found intact; also called pHDPc-Myc; source: P. falciparum 3D7 parasites, transfected (episomal expression), secreted into infected RBC cytosol; not shown: c-Myc, C-terminal, kept
How did the “stoichiometry N” value [3] turn out when B2 was run?
The value was 2.

B3: c-MycHDP (HDP with an amino-terminal c-Myc tag) (natural protein, P. falciparum, UniProt Q8IL04 1-205, looked up)
chain: B1 chain
notes: Heme Detoxification Protein (HDP), Plasmodium falciparum, 205 amino acids; the tag is described as attached to the end of the protein and found intact; also called pc-MycHDP; source: P. falciparum 3D7 parasites, transfected (episomal expression), secreted into infected RBC cytosol; not shown: c-Myc, N-terminal, kept
How did the “stoichiometry N” value [3] turn out when B3 was run?
The value was 2.
